Experimental data as given in the DeepSol protein solubility set.

test: soluble on expression in E. coli; label from the status in PepcDB or PDB records

Sequence	soluble on expression in E. coli
MSLKLVKLETFSTEFVCFVRATAEDGAQGWGQVAPYYADITAQVLHRQVAPYALGMACEDIDAMLDIVRDREHKFPGSYLRRAMGGVDTALWDMHGRRAGKPVCVLIGGTPGPVRAYGSSMKRDITPRDEAARLVRLRDEQGFDAFKFRIGAEVGRDRDEWPGRTEEIVPTMRRAMGDDVALLVDANSCYSPARAIEVGRMLEQHGISHYEEPCPYWEFAQTKEVTDTLDLDITGGEQDCLMERWQTMIADRVVDVLQPDICYLGGLSRTLRVARMAEAAGMPITPHAANLSMVTLFTMHLLRAIPNAGKYLEFSIEGLDYYPWQQGLFTSDPYRIEEGHATVTDAPGWGVDVNPDWLARSDYRVSELGEGHHHHHH	soluble
MRDMGEPKLKIVAMPSDTNPAGNIFGGWILSQIDLAGAIAARELSPERVVTISMDKVVFKEPVFIGDIISCYSKVVNVGNTSISVEVEVTAQRVDSQGCTSCINVTSALVTYVSVTRDGKKNPISEELKRIHGFLNALEHHHHHH	soluble
GPGSMAVGASSRTAQRTPARERRQIIPPDVSGQFRVTTFLSLDAFALQHFTLDDHSATGKEGRMFRAFGVTTWAPRIWDEGVSGVFLDLRGAYNYWKRADDQAQLVFDSLVAWIGALEAERDPTDRFMNLGRILLQAFRMQLMMASDPGIPVFNILARPCTAVHEADTFARTIQIPLERRGTQISLRCQLCHVTCP	not soluble
MRLNIVVVGVGGQGALTTSGIIARAAMRAGLNVVTAETHGMAQRGGSVEVHVRIGDVRAPLIPEGGADVMIALEPAEALRYAKFLNKNTLVILNTRKIIPPSVTAGTAKYPELDEIIGELRKVTPRVIPVNASEIAEKAGSVLATNVVVVGMLFGYYSMPFGIEHVEEAIRETMKSKIVDLNLKALKMGYNQAI	not soluble
MAHHHHHHMESPRQEPLPQQPSELNTNAAAVLSTTTTESYVYTCRMCRHVLFMHHEILPHYPEPVGSGNKGFKYRGGGHASSQQQQGLHAAQEGGDVCTSYFLDPDISPWVAEESREVHQVSGGLDVMPDTIYCPNRKCNAKIGTQSWVGSQCSCGAWVTPAFKIHSRVVDKMPVAQ	not soluble
GTGRSRLLEDFRNNRFPNLQLRDLIGHIVEFSQDQHGSRFIQQKLERATPAERQIVFNEILQAAYQLMTDVFGNYVIQKFFEFGSLDQKLALATRIRGHVLPLALQMYGCRVIQKALESISSDQQSEMVKELDGHVLKCVKDQNGNHVVQKCIECVQPQSLQFIIDAFKGQVFVLSTHPYGCRVIQRILEHCTAEQTLPILEELHQHTEQLVQDQYGNYVIQHVLEHGRPEDKSKIVSEIRGKVLALSQHKFASNVVEKCVTHASRAERALLIDEVCCQNDGPHSALYTMMKDQYANYVVQKMIDMAEPAQRKIIMHKIRPHITTLRKYTYGKHILAKLEKYYLKNSPDLG	soluble
AHHHHHHGSTKVYIENYGCARNRADGEIMAGLLLSSGYEIVEGEENADIVVVNSCAVKDPTEVKIARRIRELLDRGKKVIVTGCLPHVNPDAIDERVSAVLGVKSIDRIVQAVEYALRGEKLISVPDWRKRNLDKLDFPRLSPRGVHFILPIAEGCLNGCTYCATRSARGVLKSYSPEKIVEWVKWAIRQGYKEIWLSAEDTGCYGFDIGTNLAKLLDEITAIEGEFRIRVGMMNPNHVLKFLDELIEAYKDEKVYKFLHLPVQSGDNEILRRMGRTYTVEEFEEIVNAFRREFPDLNLHTDIIVGFPGESEEAFQRSLELIKRIKPDKVNVSRYSPRPGTIAAKWKQLPGWVVKERSRIMHRVRLQISYEINQRYVGRKVDILVHGEGKKGNVDAVTMNYKHIIIPRGEKGEFARAKVNGATSTYLLGEIVD	not soluble
MTPHPRLSIGLPVYNGEEYLAESLDALLGQTYENFELVISDNASTDGTRDICRRYAAQDSRIRYIRLPRNIGAAPNHNYVFTECRGELFKWASHDDLYARDLLRSCVAALDERPEVVLAHAGQAVIDGDGKVKVPYEYGLATDSPRAPERFRSLLFEPGGDDFYGVMRSAMLRRVKPHDSYHHADRTFVAEITLHGPFHQVPELLYFRRDHPTRAERANPSKRSRCVNLDPRRAGPLHPTPRLLAEYVWGFASAIGRAPLSSADRRACHRHLAAWLTSRVRPGVGERVEDRAPVDPDRLTVSVDDLVAGREGRQALEHHHHHH	not soluble
